Test results taken from US20200087400A1 (EUREKA THERAPEUTICS, published 2020).

What was measured:
Assay in all cases: phage ELISA, streptavidin plate, anti-M13-HRP
Bio-P19 member A2E-3 = biological target: T1, Bio-P19 member A2E-3 (chain 2 carries a C-terminal BirA substrate peptide (BSP), enzymatically biotinylated; the BSP letters are not given in the patent and are left out)
T1 construct: also called biotinylated control peptide A2E-3/HLA-A*02:01 monomer
Method in brief: (§1)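 Absorbance at 450 nm after HRP anti-M13 detection gave phage ELISA binding of individual clones, taken from pools panned on PSA146/HLA-A*02:01, in coated plates. In FACS, phage-stained T2 cells were detected by mouse anti-M13 then R-PE horse anti-mouse IgG.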

Bio-P19 member A2E-21 = biological target: T2, Bio-P19 member A2E-21 (chain 2 carries a C-terminal BirA substrate peptide (BSP), enzymatically biotinylated; the BSP letters are not given in the patent and are left out)
T2 construct: also called biotinylated control peptide A2E-21/HLA-A*02:01 monomer
Method in brief: as §1

Bio-P19 member A2E-16 = biological target: T3, Bio-P19 member A2E-16 (chain 2: C-terminal BirA substrate peptide (BSP), enzymatically biotinylated; its letters are not printed in the patent and it is left out)
T3 construct: also called biotinylated control peptide A2E-16/HLA-A*02:01 monomer
Method in brief: as §1

Bio-P19 member A2E-13 = biological target: T4, Bio-P19 member A2E-13 (chain 2: C-terminal BirA substrate peptide (BSP), enzymatically biotinylated; its letters are not printed in the patent and it is left out)
T4 construct: also called biotinylated control peptide A2E-13/HLA-A*02:01 monomer
Method in brief: as §1

Bio-P19 member A2E-23 = biological target: T5, Bio-P19 member A2E-23 (chain 2 carries a C-terminal BirA substrate peptide (BSP), enzymatically biotinylated; the BSP letters are not given in the patent and are left out)
T5 construct: also called biotinylated control peptide A2E-23/HLA-A*02:01 monomer
Method in brief: as §1

Bio-P19 member A2E-9 = biological target: T6, Bio-P19 member A2E-9 (chain 2 (heavy): C-terminal BirA substrate peptide, biotinylated there by BirA; tag letters not given, left out)
T6 construct: also called biotinylated control peptide A2E-9/HLA-A*02:01 monomer; not shown: BirA substrate peptide (BSP) tag at the C-terminus of the heavy chain
Method in brief: as §1

Bio-P19 member A2E-5 = biological target: T7, Bio-P19 member A2E-5 (chain 2 carries a C-terminal BirA substrate peptide (BSP), enzymatically biotinylated; the BSP letters are not given in the patent and are left out)
T7 construct: also called biotinylated control peptide A2E-5/HLA-A*02:01 monomer
Method in brief: as §1

Bio-P19 member A2E-4 = biological target: T8, Bio-P19 member A2E-4 (chain 2 carries a C-terminal BirA substrate peptide (BSP), enzymatically biotinylated; the BSP letters are not given in the patent and are left out)
T8 construct: also called biotinylated control peptide A2E-4/HLA-A*02:01 monomer
Method in brief: as §1

Bio-P19 member A2E-2 = biological target: T9, Bio-P19 member A2E-2 (chain 2 carries a C-terminal BirA substrate peptide (BSP), enzymatically biotinylated; the BSP letters are not given in the patent and are left out)
T9 construct: also called biotinylated control peptide A2E-2/HLA-A*02:01 monomer
Method in brief: as §1

Bio-P19 member A2E-19 = biological target: T10, Bio-P19 member A2E-19 (chain 2 carries a C-terminal BirA substrate peptide (BSP), enzymatically biotinylated; the BSP letters are not given in the patent and are left out)
T10 construct: also called biotinylated control peptide A2E-19/HLA-A*02:01 monomer
Method in brief: as §1

Bio-P19 member A2E-8 = biological target: T11, Bio-P19 member A2E-8 (chain 2 (heavy): C-terminal BirA substrate peptide, biotinylated there by BirA; tag letters not given, left out)
T11 construct: also called biotinylated control peptide A2E-8/HLA-A*02:01 monomer; not shown: BirA substrate peptide (BSP) tag at the C-terminus of the heavy chain
Method in brief: as §1

Bio-P19 member A2E-6 = biological target: T12, Bio-P19 member A2E-6 (chain 2 carries a C-terminal BirA substrate peptide (BSP), enzymatically biotinylated; the BSP letters are not given in the patent and are left out)
T12 construct: also called biotinylated control peptide A2E-6/HLA-A*02:01 monomer
Method in brief: as §1

Bio-P19 member A2E-15 = biological target: T13, Bio-P19 member A2E-15 (chain 2: C-terminal BirA substrate peptide (BSP), enzymatically biotinylated; its letters are not printed in the patent and it is left out)
T13 construct: also called biotinylated control peptide A2E-15/HLA-A*02:01 monomer
Method in brief: as §1

Bio-P19 member A2E-17 = biological target: T14, Bio-P19 member A2E-17 (chain 2: C-terminal BirA substrate peptide (BSP), enzymatically biotinylated; its letters are not printed in the patent and it is left out)
T14 construct: also called biotinylated control peptide A2E-17/HLA-A*02:01 monomer
Method in brief: as §1

Bio-P19 member A2E-11 = biological target: T15, Bio-P19 member A2E-11 (chain 2: C-terminal BirA substrate peptide (BSP), enzymatically biotinylated; its letters are not printed in the patent and it is left out)
T15 construct: also called biotinylated control peptide A2E-11/HLA-A*02:01 monomer
Method in brief: as §1

Bio-P19 member A2E-7 = biological target: T16, Bio-P19 member A2E-7 (chain 2 (heavy): C-terminal BirA substrate peptide, biotinylated there by BirA; tag letters not given, left out)
T16 construct: also called biotinylated control peptide A2E-7/HLA-A*02:01 monomer; not shown: BirA substrate peptide (BSP) tag at the C-terminus of the heavy chain
Method in brief: as §1

Measured: binding result

T12 sequence (beta, as listed by the source): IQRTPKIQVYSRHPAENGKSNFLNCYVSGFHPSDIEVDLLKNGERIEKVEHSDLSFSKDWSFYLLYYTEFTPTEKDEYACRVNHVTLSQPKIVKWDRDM
T9 sequence (beta, as listed by the source): as above
T16 sequence (b2m, as listed by the source): as the sequence (beta, as listed by the source) above
T2 sequence (beta, as listed by the source): as above
T13 sequence (b2m, as listed by the source): as the sequence (beta, as listed by the source) above
T6 sequence (b2m, as listed by the source): as the sequence (beta, as listed by the source) above
T4 sequence (b2m, as listed by the source): as the sequence (beta, as listed by the source) above
T5 sequence (beta, as listed by the source): as above
T10 sequence (beta, as listed by the source): as above
T15 sequence (b2m, as listed by the source): as the sequence (beta, as listed by the source) above
T8 sequence (beta, as listed by the source): as above
T7 sequence (beta, as listed by the source): as above
T14 sequence (b2m, as listed by the source): as the sequence (beta, as listed by the source) above
T11 sequence (b2m, as listed by the source): as the sequence (beta, as listed by the source) above
T1 sequence (beta, as listed by the source): as above
T3 sequence (b2m, as listed by the source): as the sequence (beta, as listed by the source) above

B1: PSA146/HLA-A*02:01-specific scFv phage clone #12 (scFv, V domains shown)
VH: QMQLVQSGSEVKKPGASVKVSCKASGYTFTSYGISWVRQAPGQGLEWMGWISAYNGNTDYVQKLQGRVTMTTDTSTNTAYMELGSLGSDDTAVYYCARTNYNKYDIWGQGTLVTVSS
VL: QSVLTQPPSVSGAPGQRVTISCTGSSSNIGAGYDVHWYQQLPGTAPKLLIYGNSNRPSGVPDRFSGSKSGTSASLAITGLQAEDEADYYCQSYDSSLSEVFGTGTKVTVLG
no binding: all assays above

B2: PSA146/HLA-A*02:01-specific scFv phage clone #13 (scFv, V domains shown)
VH: QVQLVQSGAEVKKPGASVKVSCKASGYTFTSYYMHWVRQAPGQGLEWMGGFDPEDGETIYAQKFQGRVTMTEDTSTDTAYMGLSSLRSEDTAVYYCARYSYDYWGQGTLVTVSS
VL: QAVVTQEPSLTVSPGGTVTLTCASSTGAVTSGYYPNWFQQKPGQAPRALIYSTSNKHSWTPARFSGSLLGGKAALTLSGVQPEDEAEYYCLLYYGGAYVFGTGTKVTVLG
no binding: all assays above

B3: PSA146/HLA-A*02:01-specific scFv phage clone #14 (scFv, V domains shown)
VH: EVQLVQSGAEVKKPGASVKVSCKASGYTFTGYFMHWVRQAPGQGLEWMGGFDPEDGETIYAQKFQGRVTMTEDTSTDTAYMELSSLRSEDTAVYYCARYSYDLWGQGTLVTVSS
VL: QTVVTQEPSLTVSPGGTVTLTCASSTGAVTSGYYPNWFQQKPGQAPRALIYSTSNKHSWTPARFSGSLLGGKAALTLSGVQPEDEAEYYCLLYYGGAQWVFGGGTKLTVLG
no binding: all assays above

B4: PSA146/HLA-A*02:01-specific scFv phage clone #10 (scFv, V domains shown)
VH: QVQLVQSGAEVKKPGSSVKVSCKASGGTFSSYAISWVRQAPGQGLEWMGWINPNSGGTNYAQKFQGRVTMTRDTSISTAYMELSRLRSDDTAVYYCARWSYYYFQQFWSLDGWGQGTLVTVSS
VL: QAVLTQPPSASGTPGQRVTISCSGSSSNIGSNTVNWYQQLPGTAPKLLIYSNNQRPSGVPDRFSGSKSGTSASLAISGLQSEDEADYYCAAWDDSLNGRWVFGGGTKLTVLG
no binding: all assays above

B5: PSA146/HLA-A*02:01-specific scFv phage clone #9 (scFv, V domains shown)
VH: QVQLVQSGAEVKKPGASVKVSCKASGYTFTSYGISWVRQAPGQGLEWMGWISAYNGNTNYAQKLQGRVTMTTDTSTSTAYMELRSLRSDDTAVYYCARSSQYYVWDSWGQGTLVTVSS
VL: QSVVTQPPSVSGAPGQRVTISCTGSSSNFGAGYDVHWYQQLPGTAPKLLIYGNSNRPSGVPDRFSGSKSGTSASLAITGLQAEDEADYYCQSYDSSLSGWVFGGGTKLTVLG
no binding: all assays above
